# T1: biotinylated human DLL3 protein expressed as a human IgG1 fusion protein (human, UniProt Q9NYJ7 27-492, limits assumed, biotinylated)
# T1 sequence: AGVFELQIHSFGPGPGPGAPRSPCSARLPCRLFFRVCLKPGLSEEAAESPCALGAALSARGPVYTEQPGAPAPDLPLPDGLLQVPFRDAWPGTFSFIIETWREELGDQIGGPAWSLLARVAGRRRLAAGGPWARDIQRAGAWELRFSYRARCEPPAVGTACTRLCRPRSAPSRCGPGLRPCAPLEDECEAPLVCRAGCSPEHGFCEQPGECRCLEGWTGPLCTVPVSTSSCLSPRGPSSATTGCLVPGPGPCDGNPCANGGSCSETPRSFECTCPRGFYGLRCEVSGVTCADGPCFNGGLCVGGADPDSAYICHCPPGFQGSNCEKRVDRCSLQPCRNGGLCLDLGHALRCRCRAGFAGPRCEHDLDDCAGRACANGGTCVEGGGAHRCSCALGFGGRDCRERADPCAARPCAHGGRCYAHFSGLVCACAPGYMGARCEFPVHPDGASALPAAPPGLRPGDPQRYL
# Target: T1, biotinylated human DLL3 protein …
# Assay: Octet BLI, single 50 nM
# Protocol: Using the conditioned medium with known concentrations of the anti-DLL3 trispecific proteins, the binding affinities of the anti-DLL3 trispecific proteins toward human DLL3 protein were measured using a method where biotinylated version of human DLL3 protein were expressed as a human IgG1 fusion protein, and the binding affinity measurement was carried out in an Octet instrument with streptavidin tips.
row,Kd,Binder
1,6.2 nM,"2D04 anti-DLL3 trispecific protein (other, not shown: linker 1808, anti-albumin sdAb, linker 1808, anti-CD3 fragment, His6 1819) EVQLVESGGGLVQPGGSLTLSCVASGSTSSINAVGWYRRAPGKQRELVAGISSDGSKVYRDSVKGRFTISRDNAKNSVYLQMNSLRAEDTAVYYCYYFRTVQGSSMRYWGQGTLVTVSS"
2,7.6 nM,"2C010 anti-DLL3 trispecific protein (other, not shown: linker 1808, anti-albumin sdAb, linker 1808, anti-CD3 fragment, His6 1819) EVQLVESGGGLVQPGGSLTLSCVASGSTSKINAMGWYRRAPGKQRELVAGISSDRSKVYADSVKGRFTISRDNAKNSVYLQMNSLRAEDTAVYYCYYFRTVAGSSMRYWGQGTLVTVSS"
3,6.8 nM,"2D03 anti-DLL3 trispecific protein (other, not shown: linker 1808, anti-albumin sdAb, linker 1808, anti-CD3 fragment, His6 1819) EVQLVESGGGLVQPGGSLTLSCVASGKTSSINAMGWYRRAPGKQRELVAGISSDGSKVYADSVKGRFTISRDNAKNSVYLQMNSLRAEDTAVYYCYYFRTVSGVSMRYWGQGTLVTVSS"
4,6.2 nM,"2C07 anti-DLL3 trispecific protein (other, not shown: linker 1808, anti-albumin sdAb, linker 1808, anti-CD3 fragment, His6 1819) EVQLVESGGGLVQPGGSLTLSCVASGSTSSINAMAWYRRAPGKQRELVAGISSDGSKVYADSVKGRFTISRDNAKNSVYLQMNSLRAEDTAVYYCYYFRSVSGSSMRYWGQGTLVTVSS"
5,14 nM,"2D02 anti-DLL3 trispecific protein (other, not shown: linker 1808, anti-albumin sdAb, linker 1808, anti-CD3 fragment, His6 1819) EVQLVESGGGLVQPGGSLTLSCVASGSTSSINALGWYRRAPGKQRELVAGISSDGSLVYADSVKGRFTISRDNAKNSVYLQMNSLRAEDTAVYYCYYFRIVSGSSMRYWGQGTLVTVSS"
6,8.3 nM,"2D05 anti-DLL3 trispecific protein (other, not shown: linker 1808, anti-albumin sdAb, linker 1808, anti-CD3 fragment, His6 1819) EVQLVESGGGLVQPGGSLTLSCVASGSTSRINAMGWYRRAPGKQRELVAGISSDGSKVYADSVKGRFTISRDNAKNSVYLQMNSLRAEDTAVYYCYYFRTASGSSMRYWGQGTLVTVSS"
7,6 nM,"2D07 anti-DLL3 trispecific protein (other, not shown: linker 1808, anti-albumin sdAb, linker 1808, anti-CD3 fragment, His6 1819) EVQLVESGGGLVQPGGSLTLSCVASGSTSSINAVGWYRRAPGKQRELVAGISSDGTKVYRDSVKGRFTISRDNAKNSVYLQMNSLRAEDTAVYYCYYFRTVQGSSMRYWGQGTLVTVSS"
8,6.6 nM,"2D06 anti-DLL3 trispecific protein (other, not shown: linker 1808, anti-albumin sdAb, linker 1808, anti-CD3 fragment, His6 1819) EVQLVESGGGLVQPGGSLTLSCVASGSTSSINAMGWYRRAPGKQRELVAGISSDGSKVYSDSVKGRFTISRDNAKNSVYLQMNSLRAEDTAVYYCYYFRTVSGSSSRYWGQGTLVTVSS"
9,6.1 nM,"2C08 anti-DLL3 trispecific protein (other, not shown: linker 1808, anti-albumin sdAb, linker 1808, anti-CD3 fragment, His6 1819) EVQLVESGGGLVQPGGSLTLSCVASGSTSRINAMGWYRRAPGKQRELVAGISSDGSKVYQDSVKGRFTISRDNAKNSVYLQMNSLRAEDTAVYYCYYFRRVSGSSMRYWGQGTLVTVSS"
10,6.4 nM,"2C09 anti-DLL3 trispecific protein (other, not shown: linker 1808, anti-albumin sdAb, linker 1808, anti-CD3 fragment, His6 1819) EVQLVESGGGLVQPGGSLTLSCVPSGSTSNINAMGWYRRAPGKQRELPAGISSDGTKIYADSAKVPFTITRDNAKNSVYLQMNSLRAEDTAVYYCYYFRTVSGTSMRYWGQGTLVTVSS"

# The remaining lines, values behind:
row,Binder,Kd
1,"2A06 anti-DLL3 trispecific protein (other, not shown: linker 1808, anti-albumin sdAb, linker 1808, anti-CD3 fragment, His6 1819) EVQLVESGGGLVQPGGSLTLSCVASGSTSSRNAMGWYRRAPGKQRELVAGISSDGSKVTADSVKGRFTISRDNAKNSVYLQMNSLRAEDTAVYYCYYFRTRSGSSMRYWGQGTLVTVSS",8.9 nM
2,"2A08 anti-DLL3 trispecific protein (other, not shown: linker 1808, anti-albumin sdAb, linker 1808, anti-CD3 fragment, His6 1819) EVQLVESGGGLVQPGGSLTLSCVASGSTKSINAMGWYRRAPGKQRELVAGISSDGSKVYRDSVKGRFTISRDNAKNSVYLQMNSLRAEDTAVYYCYYFRTSSGSSMRYWGQGTLVTVSS",7.7 nM
3,"2B01 anti-DLL3 trispecific protein (other, not shown: linker 1808, anti-albumin sdAb, linker 1808, anti-CD3 fragment, His6 1819) EVQLVESGGGLVQPGGSLTLSCVASGSTSLINAMGWYRRAPGKQRELVAGISSDGSKVYADSVKGRFTISRDNAKNSVYLQMNSLRAEDTAVYYCYYFRHVSGSSMRYWGQGTLVTVSS",10 nM
4,"2B012 anti-DLL3 trispecific protein (other, not shown: linker 1808, anti-albumin sdAb, linker 1808, anti-CD3 fragment, His6 1819) EVQLVESGGGLVQPGGSLTLSCVASGTTSSINAMGWYRRAPGKQRELVAGISSDGSKVYNDSVKGRFTISRDNAKNSVYLQMNSLRAEDTAVYYCYYFRTVRGSSMRYWGQGTLVTVSS",7.3 nM
5,"2B07 anti-DLL3 trispecific protein (other, not shown: linker 1808, anti-albumin sdAb, linker 1808, anti-CD3 fragment, His6 1819) EVQLVESGGGLVQPGGSLTLSCVASGSTSSINAFGWYRRAPGKQRELVAGISSDGSKVYADSVKGRFTISRDNAKNSVYLQMNSLRAEDTAVYYCYYFRTVRGSSMRYWGQGTLVTVSS",5.7 nM
6,"2B02 anti-DLL3 trispecific protein (other, not shown: linker 1808, anti-albumin sdAb, linker 1808, anti-CD3 fragment, His6 1819) EVQLVESGGGLVQPGGSLTLSCVASGSTSSINAMAWYRRAPGKQRELVAGISSDGSKVYADSVKGRFTISRDNAKNSVYLQMNSLRAEDTAVYYCYYFRTKSGSSMRYWGQGTLVTVSS",6.6 nM
7,"2B05 anti-DLL3 trispecific protein (other, not shown: linker 1808, anti-albumin sdAb, linker 1808, anti-CD3 fragment, His6 1819) EVQLVESGGGLVQPGGSLTLSCVASGTTSSINAMGWYRRAPGKQRELVAGISSDGTKVYADSVKGRFTISRDNAKNSVYLQMNSLRAEDTAVYYCYYFHTVSGSSMRYWGQGTLVTVSS",7.4 nM
8,"2A09 anti-DLL3 trispecific protein (other, not shown: linker 1808, anti-albumin sdAb, linker 1808, anti-CD3 fragment, His6 1819) EVQLVESGGGLVQPGGSLTLSCVASGSTSSRNAMGWYRRAPGKQRELVAGISSNGSKVYSDSVKGRFTISRDNAKNSVYLQMNSLRAEDTAVYYCYYFRTVSGSSMSYWGQGTLVTVSS",10 nM
9,"2C02 anti-DLL3 trispecific protein (other, not shown: linker 1808, anti-albumin sdAb, linker 1808, anti-CD3 fragment, His6 1819) EVQLVESGGGLVQPGGSLTLSCVASGSTSSINAVGWYRRAPGKQRELVAGISSDGSKVYVDSVKGRFTISRDNAKNSVYLQMNSLRAEDTAVYYCYYFRTVYGSSMRYWGQGTLVTVSS",4.1 nM
10,"2B011 anti-DLL3 trispecific protein (other, not shown: linker 1808, anti-albumin sdAb, linker 1808, anti-CD3 fragment, His6 1819) EVQLVESGGGLVQPGGSLTLSCVASGNTSSINAMGWYRRAPGKQRELVAGISSDGSRVYADSVKGRFTISRDNAKNSVYLQMNSLRAEDTAVYYCYYFRTVSGSSMRSWGQGTLVTVSS",11 nM
11,"2B010 anti-DLL3 trispecific protein (other, not shown: linker 1808, anti-albumin sdAb, linker 1808, anti-CD3 fragment, His6 1819) EVQLVESGGGLVQPGGSLTLSCVASGSTSSRNAMGWYRRAPGKQRELVAGISSDGSKLYLDSVKGRFTISRDNAKNSVYLQMNSLRAEDTAVYYCYYFRTVLGSSMRYWGQGTLVTVSS",10 nM
12,"2B03 anti-DLL3 trispecific protein (other, not shown: linker 1808, anti-albumin sdAb, linker 1808, anti-CD3 fragment, His6 1819) EVQLVESGGGLVQPGGSLTLSCVASGSTSSINAMGWYRRAPGKQRELVAGISSDGSLVYADSVKGRFTISRDNAKNSVYLQMNSLRAEDTAVYYCYYFTTVSGSSMRYWGQGTLVTVSS",7.6 nM
13,"2A011 anti-DLL3 trispecific protein (other, not shown: linker 1808, anti-albumin sdAb, linker 1808, anti-CD3 fragment, His6 1819) EVQLVESGGGLVQPGGSLTLSCVASGSTSSINAIGWYRRAPGKQRELVAGISSDGSKVYSDSVKGRFTISRDNAKNSVYLQMNSLRAEDTAVYYCYYFRPVSGSSMRYWGQGTLVTVSS",4 nM
14,"2C06 anti-DLL3 trispecific protein (other, not shown: linker 1808, anti-albumin sdAb, linker 1808, anti-CD3 fragment, His6 1819) EVQLVESGGGLVQPGGSLTLSCVASGSTNSINAMGWYRRAPGKQRELVAGISSDGSKVYKDSVKGRFTISRDNAKNSVYLQMNSLRAEDTAVYYCYYYRTVSGSSMRYWGQGTLVTVSS",6.7 nM
15,"2C01 anti-DLL3 trispecific protein (other, not shown: linker 1808, anti-albumin sdAb, linker 1808, anti-CD3 fragment, His6 1819) EVQLVESGGGLVQPGGSLTLSCVASGSTASINAMGWYRRAPGKQRELVAGISSDGSKVYADSVKGRFTISRDNAKNSVYLQMNSLRAEDTAVYYCYYFRYVSGSSMRYWGQGTLVTVSS",12 nM

# Reference: patent US20240141072A1 (published 2024)
